# From patent US5919901, “Neuropeptide Y receptor Y5 and nucleic acid sequences” (Bayer Corporation, dated 1999)
# Numbering of substitutions follows the chain as printed. Ends that are not written are not given here.
# B1: r/h(22-36)NPY (peptide)
# peptide: SALRHYINLITRQRY
# modifications: ends and bridges not checked
# B2: r(13-36)PYY (peptide)
# peptide: SPEELSRYYASLRHYLNLVTRQRY
# B3: r/h(20-36)NPY (peptide)
# peptide: YYSALRHYINLITRQRY
# modifications: ends and bridges not checked
# B4: r/h(26-36)NPY (peptide)
# peptide: HYINLITRQRY
# modifications: ends and bridges not checked
# B5: rPP (peptide)
# peptide: APLEPMYPGDYATHEQRAQYETQLRRYINTLTRPRY
# B6: hPP (peptide)
# peptide: APLEPVYPGDNATPEQMAQYAADLRRYINMLTRPRY
# B7: p(18-36)NPY (peptide)
# peptide: ARYYSALRHYINLITRQRY
# modifications: ends and bridges not checked
# Assays:
# [1] = biological target: T1, rat NPY Y5 receptor, clone Y217.24.13.6B (rat); assay: competition with [125I]PYY, membranes of transfected COS-7 cells
# T1 chain: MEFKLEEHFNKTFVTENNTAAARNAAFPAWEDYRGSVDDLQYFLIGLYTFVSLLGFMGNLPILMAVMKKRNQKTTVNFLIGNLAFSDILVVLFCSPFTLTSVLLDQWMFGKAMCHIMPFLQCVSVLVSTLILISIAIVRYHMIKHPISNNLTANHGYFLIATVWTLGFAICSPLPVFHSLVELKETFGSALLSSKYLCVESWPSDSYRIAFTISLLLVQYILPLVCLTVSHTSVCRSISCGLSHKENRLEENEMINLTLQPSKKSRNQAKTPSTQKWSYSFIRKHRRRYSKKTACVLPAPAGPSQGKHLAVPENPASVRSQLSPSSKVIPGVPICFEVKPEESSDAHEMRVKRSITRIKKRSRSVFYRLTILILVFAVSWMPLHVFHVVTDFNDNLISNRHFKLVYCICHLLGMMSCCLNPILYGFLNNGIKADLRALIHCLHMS
# Excerpt: (§1) All other peptides were purchased from either Peninsula (Belmont, Calif.) or Bachem (Torrance, Calif.).
# [2] = biological target: T2, rat NPY Y5 receptor, clone Y555 (rat); assay: competition with [125I]PYY, membranes of transfected COS-7 cells; first individual value in brackets
# T2 chain: T1 chain with P61L
# Excerpt: as §1
# [3] = biological target: T3, rat NPY Y5 receptor, clone Y861 (rat); assay: competition with [125I]PYY, membranes of transfected COS-7 cells
# T3 chain: T1 chain with P61L
# Excerpt: as §1
# [4] = biological target: T2, rat NPY Y5 receptor, clone Y555; assay: competition with [125I]PYY, membranes of transfected COS-7 cells; average of two experiments
# Excerpt: as §1
# [5] = biological target: T2, rat NPY Y5 receptor, clone Y555; assay: competition with [125I]PYY, membranes of transfected COS-7 cells; second individual value in brackets
# Excerpt: as §1
# [6] = biological target: T1, rat NPY Y5 receptor, clone Y217.24.13.6B; assay: competition with [125I]PYY, membranes of transfected COS-7 cells; first individual value in brackets
# Excerpt: as §1
# [7] = biological target: T1, rat NPY Y5 receptor, clone Y217.24.13.6B; assay: competition with [125I]PYY, membranes of transfected COS-7 cells; second individual value in brackets
# Excerpt: as §1
binder,measurement,setting,value
B1,IC50,[1],> 1000 nM
B2,IC50,[2],9.6 nM
same,IC50,[3],73 nM
same,IC50,[1],13.2 nM
same,IC50,[4],32 nM
same,IC50,[5],54 nM
B3,IC50,[6],387 nM
same,IC50,[7],332 nM
B4,IC50,[1],> 1000 nM
B5,IC50,[3],325 nM
B6,IC50,[3],4.9 nM
B7,IC50,[6],147 nM
same,IC50,[7],107 nM
